Reference: patent US20210147485A1, “PEPTIDE LIGANDS FOR BINDING TO INTEGRIN” (BicycleTx Limited, priority 2018, published 2021)
Starred links: 1 amine or outer side, 2 acyl side, 3 side chain; linkers in the order of their positions; H or OH if unused. Positions of bridges follow the written chain, without caps; N, C: chain ends. Non-standard residues stand in square brackets, D forms with d. No end group written: not given here. TBMB = c1c(C[*:1])cc(C[*:3])cc1C[*:2]; Dap(Me) = CNC[C@H](N)C(=O)O

What was measured:
integrin αvβ3 [1] = target: integrin αvβ3 (Homo sapiens, UniProt P05106+P06756); experiment: Integrin αvβ3 competition binding assay (competition fluorescence polarisation, FITC-LC-GRGDSP ligand); conditions: relative to thioether linked Reference Example 1
Description: The peptide ligands of the examples and the reference examples were tested in the above mentioned assay.
The following reference peptide ligands having a TBMB or TATA scaffold with three thioether linkages to cysteine residues of the specified peptide sequences were prepared and evaluated for affinity to integrin αvβ3 as described in detail in our earlier application GB1800598.3 filed 15 Jan. 2018.

integrin αvβ3 [2] = experiment: competition fluorescence polarisation, 5 nM FITC-LC-GRGDSP tracer; n2
integrin αvβ3 [3] = experiment: competition fluorescence polarisation, 5 nM FITC-LC-GRGDSP tracer; n1

Molecule | binding affinity to integrin αvβ3 (in words) (integrin αvβ3 [1]) | Ki (integrin αvβ3 [2]) | Ki (integrin αvβ3 [3])
[Ac]A[Dap(Me)]ILRPN[Dap(Me)]DLDGR[Dap(Me)]A [BCY00009181] | larger drop in the measured affinity |  | 
Ac-A[Dap(Me)]ILRPN[Dap(Me)]DLDGR[Dap(Me)]A (linker 2-8-14 via TBMB) [BCY00009181] |  | > 18.6 µM | > 18.6 µM
